B1: HNRNPH1 (protein)
chain: MMLGTEGGEGFVVKVRGLPWSCSADEVQRFFSDCKIQNGAQGIRFIYTREGRPSGEAFVELESEDEVKLALKKDRETMGHRYVEVFKSNNVEMDWVLKHTGPNSPDTANDGFVRLRGLPFGCSKEEIVQFFSGLEIVPNGITLPVDFQGRSTGEAFVQFASQEIAEKALKKHKERIGHRYIEIFKSSRAEVRTHYDPPRKLMAMQRPGPYDRPGAGRGYNSIGRGAGFERMRRGAYGGGYGGYDDYNGYNDGYGFGSDRFGRDLNYCFSGMSDHRYGDGGSTFQSTTGHCVHMRGLPYRATENDIYNFFSPLNPVRVHIEIGPDGRVTGEADVEFATHEDAVAAMSKDKANMQHRYVELFLNSTAGASGGAYEHRYVELFLNSTAGASGGAYGSQMMGGMGLSNQSSYGGPASQQLSGGYGGGYGGQSSMSGYGNQGAVNSSYYSSGSRASMGVNGMGGLSSMSSMSGGWGM
B2: P04844 (protein, UniProt P04844 1-631, looked up)
chain: MAPPGSSTVFLLALTIIASTWALTPTHYLTKHDVERLKASLDRPFTNLESAFYSIVGLSSLGAQVPDAKKACTYIRSNLDPSNVDSLFYAAQASQALSGCEISISNETKDLLLAAVSEDSSVTQIYHAVAALSGFGLPLASQEALSALTARLSKEETVLATVQALQTASHLSQQADLRSIVEEIEDLVARLDELGGVYLQFEEGLETTALFVAATYKLMDHVGTEPSIKEDQVIQLMNAIFSKKNFESLSEAFSVASAAAVLSHNRYHVPVVVVPEGSASDTHEQAILRLQVTNVLSQPLTQATVKLEHAKSVASRATVLQKTSFTPVGDVFELNFMNVKFSSGYYDFLVEVEGDNRYIANTVELRVKISTEVGITNVDLSTVDKDQSIAPKTTRVTYPAKAKGTFIADSHQNFALFFQLVDVNTGAELTPHQTFVRLHNQKTGQEVVFVAEPDNKNVYKFELDTSERKIEFDSASGTYTLYLIIGDATLKNPILWNVADVVIKFPEEEAPSTVLSQNLFTPKQEIQHLFREPEKRPPTVVSNTFTALILSPLLLLFALWIRIGANVSNFTFAPSTIIFHLGHAAMLGLMYVYWTQLNMFQTLKYLAILGSVTFLAGNRMLAQQAVKRTAH
modifications: full-length
B3: P42224 (protein, UniProt P42224 1-750, looked up)
chain: MSQWYELQQLDSKFLEQVHQLYDDSFPMEIRQYLAQWLEKQDWEHAANDVSFATIRFHDLLSQLDDQYSRFSLENNFLLQHNIRKSKRNLQDNFQEDPIQMSMIIYSCLKEERKILENAQRFNQAQSGNIQSTVMLDKQKELDSKVRNVKDKVMCIEHEIKSLEDLQDEYDFKCKTLQNREHETNGVAKSDQKQEQLLLKKMYLMLDNKRKEVVHKIIELLNVTELTQNALINDELVEWKRRQQSACIGGPPNACLDQLQNWFTIVAESLQQVRQQLKKLEELEQKYTYEHDPITKNKQVLWDRTFSLFQQLIQSSFVVERQPCMPTHPQRPLVLKTGVQFTVKLRLLVKLQELNYNLKVKVLFDKDVNERNTVKGFRKFNILGTHTKVMNMEESTNGSLAAEFRHLQLKEQKNAGTRTNEGPLIVTEELHSLSFETQLCQPGLVIDLETTSLPVVVISNVSQLPSGWASILWYNMLVAEPRNLSFFLTPPCARWAQLSEVLSWQFSSVTKRGLNVDQLNMLGEKLLGPNASPDGLIPWTRFCKENINDKNFPFWLWIESILELIKKHLLPLWNDGCIMGFISKERERALLKDQQPGTFLLRFSESSREGAITFTWVERSQNGGEPDFHAVEPYTKKELSAVTFPDIIRNYKVMAAENIPENPLKYLYPNIDKDHAFGKYYSRPKEAPEPMELDGPKGTGYIKTELISVSEVHPSRLQTTDNLLPMSPEEFDEVSRIVGSVEFDSMMNTV
modifications: full-length
B4: P31947 (protein, UniProt P31947 1-248, looked up)
chain: MERASLIQKAKLAEQAERYEDMAAFMKGAVEKGEELSCEERNLLSVAYKNVVGGQRAAWRVLSSIEQKSNEEGSEEKGPEVREYREKVETELQGVCDTVLGLLDSHLIKEAGDAESRVFYLKMKGDYYRYLAEVATGDDKKRIIDSARSAYQEAMDISKKEMPPTNPIRLGLALNFSVFHYEIANSPEEAISLAKTTFDEAMADLHTLSEDSYKDSTLIMQLLRDNLTLWTADNAGEEGGEAPQEPQS
modifications: full-length
B5: Q92973 (protein, UniProt Q92973 1-898, looked up)
chain: MVWDRQTKMEYEWKPDEQGLQQILQLLKESQSPDTTIQRTVQQKLEQLNQYPDFNNYLIFVLTKLKSEDEPTRSLSGLILKNNVKAHFQNFPNGVTDFIKSECLNNIGDSSPLIRATVGILITTIASKGELQNWPDLLPKLCSLLDSEDYNTCEGAFGALQKICEDSAEILDSDVLDRPLNIMIPKFLQFFKHSSPKIRSHAVACVNQFIISRTQALMLHIDSFIENLFALAGDEEPEVRKNVCRALVMLLEVRMDRLLPHMHNIVEYMLQRTQDQDENVALEACEFWLTLAEQPICKDVLVRHLPKLIPVLVNGMKYSDIDIILLKGDVEEDETIPDSEQDIRPRFHRSRTVAQQHDEDGIEEEDDDDDEIDDDDTISDWNLRKCSAAALDVLANVYRDELLPHILPLLKELLFHHEWVVKESGILVLGAIAEGCMQGMIPYLPELIPHLIQCLSDKKALVRSITCWTLSRYAHWVVSQPPDTYLKPLMTELLKRILDSNKRVQEAACSAFATLEEEACTELVPYLAYILDTLVFAFSKYQHKNLLILYDAIGTLADSVGHHLNKPEYIQMLMPPLIQKWNMLKDEDKDLFPLLECLSSVATALQSGFLPYCEPVYQRCVNLVQKTLAQAMLNNAQPDQYEAPDKDFMIVALDLLSGLAEGLGGNIEQLVARSNILTLMYQCMQDKMPEVRQSSFALLGDLTKACFQHVKPCIADFMPILGTNLNPEFISVCNNATWAIGEISIQMGIEMQPYIPMVLHQLVEIINRPNTPKTLLENTAITIGRLGYVCPQEVAPMLQQFIRPWCTSLRNIRDNEEKDSAFRGICTMISVNPSGVIQDFIFFCDAVASWINPKDDLRDMFCKILHGFKNQVGDENWRRFSDQFPLPLKERLAAFYGV
modifications: full-length
B6: P10809 (protein, UniProt P10809 1-573, looked up)
chain: MLRLPTVFRQMRPVSRVLAPHLTRAYAKDVKFGADARALMLQGVDLLADAVAVTMGPKGRTVIIEQSWGSPKVTKDGVTVAKSIDLKDKYKNIGAKLVQDVANNTNEEAGDGTTTATVLARSIAKEGFEKISKGANPVEIRRGVMLAVDAVIAELKKQSKPVTTPEEIAQVATISANGDKEIGNIISDAMKKVGRKGVITVKDGKTLNDELEIIEGMKFDRGYISPYFINTSKGQKCEFQDAYVLLSEKKISSIQSIVPALEIANAHRKPLVIIAEDVDGEALSTLVLNRLKVGLQVVAVKAPGFGDNRKNQLKDMAIATGGAVFGEEGLTLNLEDVQPHDLGKVGEVIVTKDDAMLLKGKGDKAQIEKRIQEIIEQLDVTTSEYEKEKLNERLAKLSDGVAVLKVGGTSDVEVNEKKDRVTDALNATRAAVEEGIVLGGGCALLRCIPALDSLTPANEDQKIGIEIIKRTLKIPAMTIAKNAGVEGSLIVEKIMQSSSEVGYDAMAGDFVNMVEKGIIDPTKVVRTALLDAAGVASLLTTAEVVVTEIPKEEKDPGMGAMGGMGGGMGGGMF
modifications: full-length
B7: O95373 (protein, UniProt O95373 1-1038, looked up)
chain: MDPNTIIEALRGTMDPALREAAERQLNEAHKSLNFVSTLLQITMSEQLDLPVRQAGVIYLKNMITQYWPDRETAPGDISPYTIPEEDRHCIRENIVEAIIHSPELIRVQLTTCIHHIIKHDYPSRWTAIVDKIGFYLQSDNSACWLGILLCLYQLVKNYEYKKPEERSPLVAAMQHFLPVLKDRFIQLLSDQSDQSVLIQKQIFKIFYALVQYTLPLELINQQNLTEWIEILKTVVNRDVPNETLQVEEDDRPELPWWKCKKWALHILARLFERYGSPGNVSKEYNEFAEVFLKAFAVGVQQVLLKVLYQYKEKQYMAPRVLQQTLNYINQGVSHALTWKNLKPHIQGIIQDVIFPLMCYTDADEELWQEDPYEYIRMKFDVFEDFISPTTAAQTLLFTACSKRKEVLQKTMGFCYQILTEPNADPRKKDGALHMIGSLAEILLKKKIYKDQMEYMLQNHVFPLFSSELGYMRARACWVLHYFCEVKFKSDQNLQTALELTRRCLIDDREMPVKVEAAIALQVLISNQEKAKEYITPFIRPVMQALLHIIRETENDDLTNVIQKMICEYSEEVTPIAVEMTQHLAMTFNQVIQTGPDEEGSDDKAVTAMGILNTIDTLLSVVEDHKEITQQLEGICLQVIGTVLQQHVLEFYEEIFSLAHSLTCQQVSPQMWQLLPLVFEVFQQDGFDYFTDMMPLLHNYVTVDTDTLLSDTKYLEMIYSMCKKVLTGVAGEDAECHAAKLLEVIILQCKGRGIDQCIPLFVEAALERLTREVKTSELRTMCLQVAIAALYYNPHLLLNTLENLRFPNNVEPVTNHFITQWLNDVDCFLGLHDRKMCVLGLCALIDMEQIPQVLNQVSGQILPAFILLFNGLKRAYACHAEHENDSDDDDEAEDDDETEELGSDEDDIDEDGQEYLEILAKQAGEDGDDEDWEEDDAEETALEGYSTIIDDEDNPVDEYQIFKAIFQTIQNRNPVWYQALTHGLNEEQRKQLQDIATLADQRRAAHESKMIEKHGGYKFSAPVVPSSFNFGGPAPGMN
modifications: full-length

Tested on: proteins that co-immunoprecipitated with DUX4-CTD constructs expressed in MB135 myoblasts
Test: LC-MS of proteins co-immunoprecipitated with DUX4-CTD (Table 1) and western validation
Assay type: binding, human
Set-up: key to 4. mL1dL2 + Dox + IFNG / 4. + IFNG mix / 4. longCTD + Dox + IFNG / 3. + IFNg + Dox longCTD / 3. + Dox longCTD / 3. + IFNG longCTD: peptide-spectrum matches (PSMs) per protein
Conditions: for 3. + IFNg + Dox longCTD / 3. + Dox longCTD: bait longCTD; for 3. + IFNg + Dox longCTD: experiment 3, IFNg + Dox; for SUM of PSMS: sum over all samples; for 4. longCTD + Dox + IFNG: LC-MS counts of the listed protein co-immunoprecipitated with DUX4-CTD bait longCTD; for 4. + IFNG mix: LC-MS counts of the listed protein in anti-FLAG co-IP, experiment 4, IFNG, no doxycycline, MB135 myoblasts; for 3. + Dox longCTD: experiment 3, Dox only
Summary of the method: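 FLAG-tagged DUX4-CTD expressed in doxycycline-induced MB135 myoblasts, some also IFNG-treated; nuclear lysates in pH 7.4 NP-40 IP buffer were pre-cleared, then anti-FLAG immunoprecipitated 3 h at 4 °C. For LC-MS, FLAG-peptide elution, in-gel trypsin digest, Orbitrap analysis; proteins with ≥2 PSMs in both experiments categorised and ranked by total PSMs.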

[1] = LC-MS counts of the listed protein co-immunoprecipitated with DUX4-CTD bait mL1dL2, experiment 4, Dox + IFNG

Molecule | 4. mL1dL2 + Dox + IFNG (LC-MS value per protein co-immunoprecipitated with DUX4-CTD construct mL1dL2 in MB135 myoblasts, + Dox + IFNG, kind of count not given) | 4. mL1dL2 + Dox + IFNG [1] | 3. + IFNg + Dox longCTD | SUM of PSMS | 4. longCTD + Dox + IFNG (experiment 4, Dox + IFNG) | 4. + IFNG mix | 3. + Dox longCTD
B1 | 7 | – | – | – | – | – | –
B2 | – | 3 | 4 | 7 | – | – | –
B3 | – | – | 3 | 43 | 19 | – | –
B4 | – | – | 1 | 8 | 6 | 1 | –
B5 | – | 6 | 4 | 14 | 3 | – | 1
B6 | – | 4 | 2 | 17 | 5 | 5 | 1
B7 | – | 3 | 8 | 16 | 1 | – | 4
